Publication PMC5855320, “Activation of the Notch Signaling Pathway In Vivo Elicits Changes in CSL Nuclear Dynamics” (Developmental Cell, 2018)

B1: Recombinant NICD (1762-2142) (domain or fragment, Drosophila melanogaster, UniProt P07207 1762-2142, looked up)
chain: MVLSTQRKRAHGVTWFPEGFRAPAAVMSRRRRDPHGQEMRNLNKQVAMQSQGVGQPGAHWSDDESDMPLPKRQRSDPVSGVGLGNNGGYASDHTMVSEYEEADQRVWSQAHLDVVDVRAIMTPPAHQDGGKHDVDARGPCGLTPLMIAAVRGGGLDTGEDIENNEDSTAQVISDLLAQGAELNATMDKTGETSLHLAARFARADAAKRLLDAGADANCQDNTGRTPLHAAVAADAMGVFQILLRNRATNLNARMHDGTTPLILAARLAIEGMVEDLITADADINAADNSGKTALHWAAAVNNTEAVNILLMHHANRDAQDDKDETPLFLAAREGSYEACKALLDNFANREITDHMDRLPRDVASERLHHDIVRLLDEHVPR
notes: Notch intracellular domain (NICD), Drosophila Notch, residues 1762-2142; also called Notch intracellular domain; source: bacteria, purified (glutathione-Sepharose, cation exchange, size exclusion chromatography)

Key:
[1] = system: Su(H) WT (Drosophila melanogaster); experiment: ITC; conditions: ITC: 50 mM sodium phosphate pH 6.5, 150 mM NaCl, 10 C; 10 uM Su(H) in cell, 100 uM DNA in syringe; one-site model
[2] = biological target: T1, Recombinant Su(H) (98-523) (Drosophila melanogaster, UniProt P28159 98-523); experiment: ITC; MicroCal VP-ITC; typically 50 μM Su(H) in the syringe and 5 μM NICD in the cell; 25°C; 50 mM sodium phosphate pH 6.5, 150 mM NaCl; one-site binding model; conditions: both partners purified
T1 construct: Suppressor of Hairless (Su(H)), the Drosophila CSL, residues 98-523; Wild-type parent of the NBM mutant in the ITC experiment; also called Suppressor of Hairless; CSL; source: bacteria, purified (glutathione-Sepharose, cation exchange, size exclusion chromatography)
T1 sequence (P28159 98-523): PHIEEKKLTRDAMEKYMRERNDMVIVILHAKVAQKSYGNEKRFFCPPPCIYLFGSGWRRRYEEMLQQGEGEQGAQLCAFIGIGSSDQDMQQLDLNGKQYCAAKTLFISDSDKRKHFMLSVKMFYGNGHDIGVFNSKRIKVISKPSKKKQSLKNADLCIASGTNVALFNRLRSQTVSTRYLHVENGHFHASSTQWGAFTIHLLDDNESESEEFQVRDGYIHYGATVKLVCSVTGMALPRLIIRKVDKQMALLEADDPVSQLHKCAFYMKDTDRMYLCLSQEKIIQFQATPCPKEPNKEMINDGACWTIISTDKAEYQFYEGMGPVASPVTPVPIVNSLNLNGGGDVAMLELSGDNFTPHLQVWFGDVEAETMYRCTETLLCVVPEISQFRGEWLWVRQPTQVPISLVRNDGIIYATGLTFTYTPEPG

| Molecule | Kd [1] [nM] | binding result [2] |
| --- | --- | --- |
| ITC DNA (Su(H) binding DNA, sequence not given) | 460 |  |
| B1 |  | binds |
